Laboratory results: patent US20230050972A1 (MOMENTA PHARMACEUTICALS, published 2023)
Where “and” joins values, the source holds several entries; their conditions need not be identical. Identical values can stand only once.

T1: in-house generated I domain of α11β1 (human, UniProt Q9UKX5 159-349, limits assumed)
T1 construct: domain: I domain; also called human α11β1 I domain; α11β1 I Domain
T1 sequence (looked up): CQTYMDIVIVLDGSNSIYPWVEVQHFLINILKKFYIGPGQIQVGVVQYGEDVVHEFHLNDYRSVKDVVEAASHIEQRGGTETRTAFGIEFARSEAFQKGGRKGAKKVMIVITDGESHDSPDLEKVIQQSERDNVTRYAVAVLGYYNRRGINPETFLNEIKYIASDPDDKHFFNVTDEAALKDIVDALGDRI

B1: A11B1_6F9 (antibody, V domains shown)
VH: QSLEESGGDLVKPGASLTLTCTASGSSFSSTYWNCWVRQAPGKGLEWIACINAGSGTTYYASWAKGRFTVSKTSSTTVTLQMTSLTAADTATYFCTRDSDGRFSSGYYFNLWGPGTLVTVSS
VL: AQVLTQTASPVSAAVGGTVTINCQSSQSVYDNNWLAWYQQKPGQPPKLLIDDASKLTSGVSSRFKGSGSGTQFTLTISGVQCDDAATYYCQGAYYSSGWYWAFGGGTEVVVKG
notes: recombinant rabbit IgG, full chains
B2: A11B1_6G4 (antibody, V domains shown)
VH: QQQLEESGGGLVKPGGTLTLTCKASGVALNPYYYMCWVRQAPGKGLEWIACVDADSSGSTYYASWAKGRFTISKTSSTTVTLKMTSLTAADTATYFCARESVDYSSVGIGYVHGTDGLWGPGTLVTVSS
VL: DIVVTQTPSSVSAAVGGTVTIKCQASQSISNYFSWYQQKPGQPPKLLIYRASTLASGVPSRFKGSGSGTEFTLTISDLECADAATYYCQCTYGRSNSNFFYGFGGGTEVVVKG
notes: as for B1
B3: A11B1_4E1 (antibody, V domains shown)
VH: QSLEESGGDLVKPGTSLTLSCTASGFSFGSYYYMCWVRQAPGKGLEWIACIDVGSSGDTYYASWVNGRFTISKTSSTTVTLQMTSLTAADTATYFCARDDTAAGGFGNLELWGPGTLVTVSS
VL: AFELTQTPSSVSEPVGGTVTIKCQASQSIYSYFSWYQQKPGQPPKRLIYQASTLASGVPSRFKGSGSGTDFTLTISDLECADAATYYCQNNYGRGSGSYFFGFGGGTEVVVKG
notes: as for B1
B4: A11B1_6C7 (antibody, V domains shown)
VH: QQQLEESGGGLVKPGGTLTLTCKASGIDFSSYYYMCWVRQAPGKGLELIVCIYTSSGGTWYASWVNGRLTISRSTSLNTVDLKMTSLTAADTATYFCARGVYSGSSDYPTRLDLWGQGTLVTVSL
VL: AIEMTQSPPSLSASVGETVRIRCLASEDIYSGISWYQQKPEKPPTLLISGASNLESGVPPRFSGGGSGTDYTLTIGGVQAEDVATYYCLGGYSFSSTGLTFGAGTKVEIKR
notes: as for B1
B5: A11B1_5D7 (antibody, V domains shown)
VH: QEQLVESGGGLVQPEGSLTLTCKASGFDFSSNAMCWVRQAPGKGLEWIACIYNGDGSTYYASWVNGRFTISKTSSTTVTLQMTSLTAADTATYFCARGLSNWNRDNLWGPGTLVTVSS
VL: AQVLTQTPSSVSAAVGGTATINCQASQSLYSPKNLAWYQQTPGQPPKLLIYSASKLASGVPSRFKGSGSGTQFTLTISGVQCDDAAIYYCQGEFSCTTAACFAFGGGTEVVVKG
notes: as for B1
B6: A11B1_5A7 (antibody, V domains shown)
VH: QSLEESGGGLVQPEGSLTLACTASGFSFSSYYYICWVRQAPGTGLEWIGCINTGSDDTHYASWLKGRFTFSKASSTTLTLQMTSLTAADTATYFCARSSGSSDDAYDLWGPGTLVTVSS
VL: DVVMTQTPASVSEPVGGAVTIKCQASQSIGSNLAWYQHKPGQPPKLLIYFASSLASGVSSRFKGGRSGTQFTLTISDLECADAATYYCHCTYYPLSYVTFGGGTEVVVKG
notes: as for B1
B7: A11B1_3B1 (antibody, V domains shown)
VH: QEQLEESGGGLVKPEGSLTLTCKASGFDLSSGYDMCWVRQAPGKGLEWIACIYADYSGSTYYASWVNGRFTISSSTSLNTVDLKMTSLTAADTATYFCARGATGNGGYGYYFNLWGPGTLVTVSS
VL: DIVMTQTPASVSEPVGGTVTIKCQASQNINSGLAWYQQKPGQPPKLLIYKASTLASGVSSRFKGSGSGTEFTLTISDLECADAATYYCQTYYYSSSSSDNAFGGGTEVVVKG
notes: as for B1
B8: A11B1_16G7 (antibody, V domains shown)
VH: QEQLVESGGDLVKPGASLTLTCTASGFSFNKNYWMCWVRQAPGKGLEWIGCIYNGDGNTYYASWVNGRFTISKTSSTTVTLQMTSLTVADTAIYFCARLLNMWGPGTLVTVSS
VL: DIVMTQTPASVEAAVGGTVTIKCQASESIGNALAWYQQKPGQPPKLLIYTAATLASGVPSRFSGSGSGTEFTLTISGVQCDDAATYYCQSYYFTSVSSYGNAFGGGTEVVVKG
notes: as for B1
B9: 6-O17 (antibody, V domains shown)
VH: QVQLQQPGAELVKPGASVKLSCKASGYTFTSYWMHWIKQRPGQGLEWIGEINPSNGGSNYNEKFKSKATLTVDKSSSTAYMQLSSLTSEDSAVYHCKSRGYWGQGTTLTVSS
VL: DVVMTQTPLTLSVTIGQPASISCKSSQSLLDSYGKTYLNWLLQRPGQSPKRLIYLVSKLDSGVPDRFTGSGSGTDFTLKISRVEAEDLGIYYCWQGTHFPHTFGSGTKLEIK
notes: mouse hybridoma IgG
B10: 7-H14 (antibody, V domains shown)
VH: QVQLQQPGAELVRPGASVKLSCKPSGYTFTSYWMNWVKQRPGQGLEWIGMIDPSDSETHYNQMFKDKATLTVDKSSNTAYMQLSSLTSEDSAVYYCAQIYYAYDKAYWGQGTLVTVSA
VL: DIVMSQSPSSLAVSVGEKVTMSCKSSQSLLYSSHQKNYLAWYQQKPGQSPKLLIYWASTRESGVPDRFTGSGSGTDFSLTISSVKAEDLAVYYCQEYYSWTFGGGTKLEIK
notes: mouse hybridoma IgG
B11: 7D8B10 (antibody, V domains shown)
VH: EVKLEESGGGLVQPGMSVKLSCATSGFIFSDYWMEWVRQAPGKGLEWVAEIRNKANNYATYYGKSMKGRFTISRDDSKSIVYLQVNSIRSEDTAIYYCAPNFDYWGQGVMVTVSS
VL: DVVLTQTPPTLSATIGQSVSISCRSSQSLLHSTGNTYLNWLLQRPGQPPQLLIYLVSRLESGVPNRFSASGSGTDFTLKISGIEAEDLGVYYCVQSSHTPYTFGTGTKLELK
notes: rat hybridoma mAb
B12: 9-E16 (antibody, V domains shown)
VH: EVQLQQSGPELVKPGASVKISCKASGYTFTDYYMHWVKQKPGQGLEWIGEIYPGSGNPYYNEKFKGKATLTADKSSSSAYMQLSSLTSEDSAVYFCARTSYGRVGTGFAYWGQGTLVTVSA
VL: NFVMTQTPLSLPVSLGDQASISCRSSQSLLHSNGNTYLHWYLQKPGQSPKLLIYKVSNRFSGVPDRFSGSGSGTDFTLKINRVETEDLGIYFCSQSSHVPTFGAGTKLELK
notes: mouse hybridoma IgG

molecular target: T2, α11β1 on human myofibroblasts (MF) (human, UniProt Q9UKX5 23-1188; P05556 21-798); assay: FACS on human myofibroblasts
T2 construct: whole, on cells
Experimental: Human Pulmonary Fibroblasts (ScienCell) were cultured in complete Fibroblast Growth Medium (ScienCell) until 80% confluent in T-150 flasks. Cells were washed and harvested using Accutase. Cells were seeded into T-150 flasks at 7,500 cells/cm² in complete FGF and cultured for 72 hours. Cells were then washed and starved in serum reduced medium for 24 hours. After starvation, cells were treated with TGFβ-1 (R&D Systems) for 72 hours. Cells were harvested using Accutase and seeded in 96-well conical bottom plates. Cells were blocked with Heat Inactived Fetal Bovine Serum (Gibco) for 30 minutes at 4° C. Cells were then incubated with anti-α11 antibodies at the doses described in each figure for 30 minutes at 4° C. A human anti-α11 antibody (Creative BioLabs) was included as a positive control as well as the appropriate IgG isotype negative controls. Cells were washed twice and incubated with PE conjugated secondary antibodies specific to the IgG class of the anti-α11 antibodies being tested for 30 minutes at 4° C. Cells were washed twice and fixed in 1% PFA for 30 minutes. Cells were acquired on a FACS Verse […]. Data were analyzed by gating on single cells and determining the geometric Mean Fluorescence Intensity (gMFI) in the PE channel for each sample.

| Binder | binding result |
| --- | --- |
| B1 | binds |
| B2 | binds |
| B3 | binds |
| B4 | binds |
| B5 | binds |
| B6 | binds |
| B7 | binds |
| B8 | binds |
| B9 | binds |
| B10 | binds |
| B11 | binds |

molecular target: T1, in-house generated I domain of α11β1; assay: binding to isolated I domain

| Binder | binding result |
| --- | --- |
| B1 | no binding |
| B2 | no binding |
| B3 | no binding |
| B4 | no binding |
| B5 | no binding |
| B6 | no binding |
| B7 | no binding |
| B8 | no binding |
| B9 | no binding |
| B10 | no binding |
| B11 | no binding |

molecular target: T3, recombinant mouse α11β1 (mouse, UniProt P61622 23-1141; P09055 21-728, limits assumed); assay: ELISA, plate coated with recombinant mouse α11β1
T3 construct: also called murine α11β1
T3 sequence (P61622 23-1141 limits assumed, chain 1 of 2): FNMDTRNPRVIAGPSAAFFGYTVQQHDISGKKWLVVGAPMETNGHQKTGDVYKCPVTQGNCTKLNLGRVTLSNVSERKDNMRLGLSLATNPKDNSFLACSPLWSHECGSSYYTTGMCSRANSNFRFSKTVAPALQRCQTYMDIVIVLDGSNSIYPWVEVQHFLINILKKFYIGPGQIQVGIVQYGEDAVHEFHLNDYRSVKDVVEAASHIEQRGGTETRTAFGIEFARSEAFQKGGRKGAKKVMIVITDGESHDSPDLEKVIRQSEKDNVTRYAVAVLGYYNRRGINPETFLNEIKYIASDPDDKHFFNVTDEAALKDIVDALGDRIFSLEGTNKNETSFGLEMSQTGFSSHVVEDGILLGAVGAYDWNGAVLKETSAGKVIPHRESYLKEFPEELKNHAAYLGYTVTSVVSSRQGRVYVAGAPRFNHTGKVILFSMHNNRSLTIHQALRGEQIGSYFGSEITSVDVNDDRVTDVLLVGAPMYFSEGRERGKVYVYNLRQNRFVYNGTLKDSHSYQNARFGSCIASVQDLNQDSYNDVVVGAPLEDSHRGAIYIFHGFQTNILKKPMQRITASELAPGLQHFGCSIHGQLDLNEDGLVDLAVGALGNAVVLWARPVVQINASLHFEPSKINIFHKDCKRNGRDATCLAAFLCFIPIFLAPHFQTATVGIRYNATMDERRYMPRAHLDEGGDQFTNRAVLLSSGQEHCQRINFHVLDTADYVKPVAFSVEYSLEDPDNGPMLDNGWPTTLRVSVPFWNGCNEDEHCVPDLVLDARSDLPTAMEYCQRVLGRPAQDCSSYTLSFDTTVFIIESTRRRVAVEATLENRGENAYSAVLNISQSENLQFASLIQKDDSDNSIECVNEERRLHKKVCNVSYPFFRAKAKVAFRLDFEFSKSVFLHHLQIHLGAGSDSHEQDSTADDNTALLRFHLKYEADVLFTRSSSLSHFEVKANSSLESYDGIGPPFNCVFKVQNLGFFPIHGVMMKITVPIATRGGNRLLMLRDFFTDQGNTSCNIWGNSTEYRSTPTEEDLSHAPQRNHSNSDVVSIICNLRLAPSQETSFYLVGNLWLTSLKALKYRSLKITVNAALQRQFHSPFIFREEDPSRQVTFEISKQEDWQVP
T3 sequence (P09055 21-728 limits assumed, chain 2 of 2): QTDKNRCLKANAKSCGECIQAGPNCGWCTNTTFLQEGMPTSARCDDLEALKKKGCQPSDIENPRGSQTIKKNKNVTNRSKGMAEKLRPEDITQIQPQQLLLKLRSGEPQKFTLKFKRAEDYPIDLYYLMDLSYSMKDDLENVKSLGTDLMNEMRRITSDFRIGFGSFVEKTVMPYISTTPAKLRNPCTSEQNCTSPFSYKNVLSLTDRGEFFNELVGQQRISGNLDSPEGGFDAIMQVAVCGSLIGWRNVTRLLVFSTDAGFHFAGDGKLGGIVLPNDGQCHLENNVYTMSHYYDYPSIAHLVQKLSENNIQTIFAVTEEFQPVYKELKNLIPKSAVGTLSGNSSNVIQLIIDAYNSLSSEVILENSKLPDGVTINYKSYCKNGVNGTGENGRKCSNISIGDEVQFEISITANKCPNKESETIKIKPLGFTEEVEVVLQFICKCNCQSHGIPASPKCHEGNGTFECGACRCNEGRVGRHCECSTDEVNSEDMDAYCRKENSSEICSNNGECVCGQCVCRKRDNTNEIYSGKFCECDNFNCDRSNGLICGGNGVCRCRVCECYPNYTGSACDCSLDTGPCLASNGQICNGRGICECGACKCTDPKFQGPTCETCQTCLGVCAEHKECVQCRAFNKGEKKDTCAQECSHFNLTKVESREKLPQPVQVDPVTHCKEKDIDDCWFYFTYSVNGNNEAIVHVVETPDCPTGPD
Experimental: (§1) 0.25 μg/mL of target antigen (recombinant human or mouse α11β1) was plated in a 96-well plate over night at 4° C. Plates were washed (PBS with 0.1% Tween-20), blocked (PBS with 2% BSA and 0.05% Tween-20) for 1 hour at room temperature and incubated with a range of antibody concentrations for 1 hour at room temperature. Subsequently, plates were washed and incubated with biotinylated anti-rabbit/mouse/human IgG in a 1:1000 dilution buffer and incubated for 1 hour at room temperature. After washing the plates, Streptavidin HRP was added at 1:200 in dilution buffer and incubated for 1 hour at room temperature. Ultra TMB ELISA substrate solution was added and the plates incubated for 5 minutes on a plate shaker. The reaction was stopped by adding stop solution to each well and plates were read at 450 nm.

| Binder | EC50 (read off the curve) |
| --- | --- |
| B12 | ~6 ng/mL |

molecular target: human α11β1 expressed on the surface of CHO-K1 cells (human, UniProt Q9UKX5 23-1188); assay: FACS on CHO-K1 hu α11β1 cells, estimated EC50
Sequence (Q9UKX5 23-1188): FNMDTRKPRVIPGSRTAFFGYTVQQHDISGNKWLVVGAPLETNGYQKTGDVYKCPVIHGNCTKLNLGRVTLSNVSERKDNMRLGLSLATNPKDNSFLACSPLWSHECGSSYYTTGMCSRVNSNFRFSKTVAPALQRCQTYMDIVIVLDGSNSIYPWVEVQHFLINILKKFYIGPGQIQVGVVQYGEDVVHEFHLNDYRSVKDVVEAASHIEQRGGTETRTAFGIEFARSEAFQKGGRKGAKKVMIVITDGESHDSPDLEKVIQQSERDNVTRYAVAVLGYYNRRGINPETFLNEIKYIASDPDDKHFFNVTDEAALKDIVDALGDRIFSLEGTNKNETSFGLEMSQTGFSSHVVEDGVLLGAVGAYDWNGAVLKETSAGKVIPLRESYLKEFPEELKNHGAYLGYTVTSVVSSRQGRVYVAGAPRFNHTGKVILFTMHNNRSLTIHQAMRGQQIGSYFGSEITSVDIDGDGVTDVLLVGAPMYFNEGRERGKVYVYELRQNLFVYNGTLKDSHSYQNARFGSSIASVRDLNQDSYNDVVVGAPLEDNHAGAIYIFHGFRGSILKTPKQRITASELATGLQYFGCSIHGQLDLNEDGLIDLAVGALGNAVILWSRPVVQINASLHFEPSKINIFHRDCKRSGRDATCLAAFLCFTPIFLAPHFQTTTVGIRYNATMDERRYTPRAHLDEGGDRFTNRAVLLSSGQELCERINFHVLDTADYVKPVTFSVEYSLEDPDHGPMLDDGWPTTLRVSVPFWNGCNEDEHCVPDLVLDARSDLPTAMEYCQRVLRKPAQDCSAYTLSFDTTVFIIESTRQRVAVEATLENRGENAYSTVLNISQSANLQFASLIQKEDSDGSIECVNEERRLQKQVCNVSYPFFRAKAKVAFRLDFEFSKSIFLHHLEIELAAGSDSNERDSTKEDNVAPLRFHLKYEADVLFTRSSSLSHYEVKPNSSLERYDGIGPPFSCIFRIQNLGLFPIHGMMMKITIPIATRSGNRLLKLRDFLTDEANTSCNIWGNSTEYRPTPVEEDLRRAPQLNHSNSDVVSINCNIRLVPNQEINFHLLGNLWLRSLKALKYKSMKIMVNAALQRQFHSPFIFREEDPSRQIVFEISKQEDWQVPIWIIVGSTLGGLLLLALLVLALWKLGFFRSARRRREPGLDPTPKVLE
Experimental: 200,000 cells (wild-type CHO-K1 cells or CHO-K1 cells expressing human α11) were incubated with each antibody at desired concentrations in FACS buffer for 30 min at 4° C. Then, the cells were washed with FACS buffer and incubated with secondary antibody at 1:100 dilution for 30 minutes at 4° C. Cells were then washed and fixed with 1% PFA in PBS for 20 minutes at room temperature; washed again and read on a cytometer in FACS buffer.
Binding EC₅₀ was estimated using data from Fluorescence-activated cell sorting (FACS) performed with CHO-K1 hu α11β1 cells. Four out of six mAbs tested had EC₅₀ results in the low nanomolar range (8-P20, 8-G15, 8-J17, 8-l14), while the remaining two mAbs were not as potent (9-G05 and 9-E16; both I domain binders).

| Binder | EC50 |
| --- | --- |
| B12 | 42.8 µg/mL and 285 nM |

molecular target: T4, recombinant human α11β1 (human, UniProt Q9UKX5 23-1141; P05556 21-728); assay: ELISA, plate coated with recombinant human α11β1
T4 construct: Coated in ELISA; ELISA and SPR material treated as one molecule; also called HIS-tagged human α11β1; integrin alpha 11 beta 1
T4 sequence (Q9UKX5 23-1141 limits assumed, chain 1 of 2): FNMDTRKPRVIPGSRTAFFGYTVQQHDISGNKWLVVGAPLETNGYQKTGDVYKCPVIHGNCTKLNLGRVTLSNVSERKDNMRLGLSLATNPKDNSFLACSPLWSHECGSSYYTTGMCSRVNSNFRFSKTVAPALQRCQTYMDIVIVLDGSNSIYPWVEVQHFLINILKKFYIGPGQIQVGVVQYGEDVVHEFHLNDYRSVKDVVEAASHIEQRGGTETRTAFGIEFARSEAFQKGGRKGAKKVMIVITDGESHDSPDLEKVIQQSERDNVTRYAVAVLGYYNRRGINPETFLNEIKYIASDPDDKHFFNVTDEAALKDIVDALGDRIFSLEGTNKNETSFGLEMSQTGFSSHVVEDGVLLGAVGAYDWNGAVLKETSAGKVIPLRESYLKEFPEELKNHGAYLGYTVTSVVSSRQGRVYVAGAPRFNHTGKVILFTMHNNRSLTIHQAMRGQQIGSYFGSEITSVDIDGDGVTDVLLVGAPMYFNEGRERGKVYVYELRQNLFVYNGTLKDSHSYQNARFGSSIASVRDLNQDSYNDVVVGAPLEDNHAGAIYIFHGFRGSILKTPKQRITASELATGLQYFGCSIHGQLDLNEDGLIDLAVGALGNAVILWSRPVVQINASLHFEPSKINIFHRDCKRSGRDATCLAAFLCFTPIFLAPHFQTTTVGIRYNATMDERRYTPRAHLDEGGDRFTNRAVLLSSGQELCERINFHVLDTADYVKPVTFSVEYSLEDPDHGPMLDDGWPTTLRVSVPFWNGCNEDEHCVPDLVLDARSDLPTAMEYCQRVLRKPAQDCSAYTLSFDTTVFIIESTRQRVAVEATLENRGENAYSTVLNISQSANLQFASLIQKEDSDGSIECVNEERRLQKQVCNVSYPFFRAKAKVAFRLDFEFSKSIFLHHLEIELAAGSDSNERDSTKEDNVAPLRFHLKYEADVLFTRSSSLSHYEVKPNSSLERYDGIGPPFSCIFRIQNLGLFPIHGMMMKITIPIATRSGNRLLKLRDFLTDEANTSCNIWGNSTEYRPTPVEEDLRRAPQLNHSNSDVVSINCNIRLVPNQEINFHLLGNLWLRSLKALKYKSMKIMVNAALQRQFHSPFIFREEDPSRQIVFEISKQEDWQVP
T4 sequence (P05556 21-728 limits assumed, chain 2 of 2): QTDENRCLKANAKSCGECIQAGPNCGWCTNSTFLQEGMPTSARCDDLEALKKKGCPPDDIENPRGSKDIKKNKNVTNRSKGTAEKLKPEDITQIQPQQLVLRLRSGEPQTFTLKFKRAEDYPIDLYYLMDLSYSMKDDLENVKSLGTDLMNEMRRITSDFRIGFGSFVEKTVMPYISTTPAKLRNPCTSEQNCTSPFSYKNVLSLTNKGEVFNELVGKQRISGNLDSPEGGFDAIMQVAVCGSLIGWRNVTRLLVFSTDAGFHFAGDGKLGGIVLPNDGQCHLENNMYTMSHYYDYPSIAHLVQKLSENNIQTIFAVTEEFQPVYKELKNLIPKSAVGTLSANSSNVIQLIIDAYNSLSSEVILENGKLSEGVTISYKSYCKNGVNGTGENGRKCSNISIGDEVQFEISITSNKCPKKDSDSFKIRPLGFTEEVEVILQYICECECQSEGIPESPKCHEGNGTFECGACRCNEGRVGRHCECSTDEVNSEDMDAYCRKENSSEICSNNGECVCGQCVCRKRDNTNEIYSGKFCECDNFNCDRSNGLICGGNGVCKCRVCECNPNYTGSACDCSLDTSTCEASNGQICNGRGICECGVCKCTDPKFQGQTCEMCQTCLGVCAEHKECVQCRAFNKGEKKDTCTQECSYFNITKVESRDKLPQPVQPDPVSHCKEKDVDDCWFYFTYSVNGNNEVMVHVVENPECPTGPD
Experimental: as §1

| Binder | EC50 (read off the curve) |
| --- | --- |
| B12 | ~1 ng/mL |

molecular target: T4, recombinant human α11β1; assay: ELISA on recombinant human α11β1
Experimental: as §1

| Binder | binding result |
| --- | --- |
| B1 | binds |
| B2 | binds |
| B3 | binds |
| B4 | binds |
| B5 | binds |
| B6 | binds |
| B7 | binds |
| B8 | binds |
| B9 | binds |
| B10 | binds |
| B11 | binds |

molecular target: T3, recombinant mouse α11β1; assay: ELISA on recombinant mouse α11β1
Experimental: as §1

| Binder | binding result |
| --- | --- |
| B1 | no binding |
| B2 | no binding |
| B3 | no binding |
| B4 | no binding |
| B5 | no binding |
| B6 | no binding |
| B7 | no binding |
| B8 | binds |
| B9 | binds |
| B10 | binds |
| B11 | no binding |
